In US20150329642A1 (Genmab, published 2015):
Numbering of substitutions follows the chain as printed. Names and notes keep the numbering of the source.

B1: UniBody molecule of antibody 035 (other)
VH: EVQLVQSGAEVKKPGESLKISCKGSGYSFTSYWIGWVRQMPGKGLEWMGIIYPGDSDTRYSPSFQGQVTISADKSISTAYLQWNSLKASDTAMYYCARQEITGEFDYWGQGTLVTVSS
VL: AIQLTQSPSSLSASVGDRVTITCRASQGISSALAWYQQKPGKAPKLLIYDASSLESGVPSRFSGSGSGTDFTLTISSLQPEDFATYYCQQFNSYPMYTFGQGTKLEIK
B2: UniBody molecule of antibody 024 (other)
VH: EVQLLESGGGLVQPGGSLRLSCVASGFTFSSYAMSWVRQAPGKGLEWVSAISGSSGGSTYYVDSVKGRFTISRANSKNTLYLQMNSLRAEDTAVYYCAKDLDRGWMGYFGYWGQGTLVTVSS
VL: DIQMTQSPSSVSASVGDRVTITCRASQGISSWLAWYQHKPGKAPKLLIYAASSLQSGVPSRFSGSGSGTDFTLTISSLQPEDFATYYCQQANSFPTFGQGTRLEIK
B3: Uni-1016-045-TE (other)
VH: EVQLLESGGGLVQPGGSLRLSCAASGFTFSSYAMSWVRQAPGKGLEWVSVISGSGGITYYADSVKGRFTISRDNSKNTLYLQMNSLRAEDTAVYYCARDRGWGSDYWGQGTLVTVSS
VL: EIVLTQSPATLSLSPGERATLSCRASQSVSSYLAWYQQKPGQAPRLLIYDASNRATGIPARFSGSGSGTDFTLTISSLEPEDFAVYYCQQRSNWPFTFGPGTKVDIK
notes: also called UniBody molecule of antibody 045
B4: UniBody molecule of antibody 008 (other)
VH: B1 VH with D57E, N84S
VL: AIQLTQSPSSLSASVGDRVTITCRASQGISSALAWYQQKPGKAPKLLIYDASSLESGVPSRFSGSGSGTDFTLTISSLQPEDFATYYCQQFNSYPRTFGQGTKVEIK
B5: UniBody molecule of antibody 098 (other)
VH: QVQLVQSGAEVKKPGASVKVSCKASGYTFTNFGISWVRQAPGQGLEWMGWISAFNGHTDYSQKVQGRVTMTTDTSTSTAYMELRSLRSDDTAVFYCARSHYYGSGSPFDYWGQGTLVTVSS
VL: DIQMTQSPSSLSASVGDRVTITCRASQGISNWLAWYQQKPEKAPKSLIYAASSLQSGVPSRFSGSGSGTDFTLTISSLQPEDFATYYCHQYKSYPWTFGQGTKVEIK
B6: Uni-1016-005 (other)
VH: QVQLVQSGAEVKKPGSSVKVSCKASGGTFSSYGFGWVRQAPGQGLEWMGRISPILGIANYAQMFQGRVTITADKSTSTAYMELSSLRSEDTAVYYCARDVGYDWPDTFDIWGQGTMVIVSS
VL: B5 VL with N31S, S65G, H89Q, K92N, Y94F, W96P
notes: also called UniBody molecule of antibody 005
B7: Uni-1016-069-TE (other)
VH: QVQLVQSGAEVKKPGASVKVSCETSGYTFTSYGISWVRQAPGHGLEWMGWISAYNGYTNYAQKLQGRVTMTTDTSTSTAYMELRSLRSDDTAVYYCARDLRGTNYFDYWGQGTLVTVSS
VL: DIQMTQSPSSVSASVGDRVTITCRASQGISNWLAWFQHKPGKAPKLLIYAASSLLSGVPSRFSGSGSGTDFTLTISSLQPEDFATYYCQQANSFPITFGQGTRLEIK
notes: also called UniBody molecule of antibody 069
B8: UniBody molecule of antibody 181 (other)
VH: B7 VH with E23K, T24A, H43Q, A53T, N104A
VL: B7 VL with F36Y
B9: Uni-IgG1-1016-069 (antibody, V domains shown)
VH: B7 VH
VL: B7 VL
notes: human kappa; also called Hinge deleted IgG1 (Uni-IgG1) of 069; UniBody-IgG1
B10: IgG1-1016-069-ΔC220 (antibody, V domains shown)
VH: B7 VH
VL: B7 VL
notes: human kappa; also called IgG1 ΔC220 mutant of 069
B11: IgG1-1016-069-C220S (antibody, V domains shown)
VH: B7 VH
VL: B7 VL
notes: human kappa; also called IgG1 C220S mutant of 069
B12: IgG1-1016-069-Hinge IgG2 (antibody, V domains shown)
VH: B7 VH
VL: B7 VL
notes: human kappa; also called IgG1 Hinge-IgG2 variant of 069
B13: IgG1-1016-069-Hinge IgG3 (antibody, V domains shown)
VH: B7 VH
VL: B7 VL
notes: also called IgG1 Hinge-IgG3 variant of 069
B14: IgG1-1016-069 TH7Δ6-9 (antibody, V domains shown)
VH: B7 VH
VL: B7 VL
notes: human kappa; also called IgG1 TH7Δ6-9 mutant of 069
B15: IgG2-1016-069 (antibody, V domains shown)
VH: B7 VH
VL: B7 VL
notes: IgG2 format of clone 069; also called IgG2 backbone variant of 069

molecular target: T1, human c-Met, membrane-bound on cells (human, UniProt P08581 25-1390); assay: flow cytometry on A431 cells (PE goat anti-human IgG); third panel
T1 construct: whole, on cells; A431 cells carry on average 30,000 copies of c-Met per cell (Qifi); also called c-Met expressed on A431 cells; c-Met on A549 cells
T1 sequence (P08581 25-1390): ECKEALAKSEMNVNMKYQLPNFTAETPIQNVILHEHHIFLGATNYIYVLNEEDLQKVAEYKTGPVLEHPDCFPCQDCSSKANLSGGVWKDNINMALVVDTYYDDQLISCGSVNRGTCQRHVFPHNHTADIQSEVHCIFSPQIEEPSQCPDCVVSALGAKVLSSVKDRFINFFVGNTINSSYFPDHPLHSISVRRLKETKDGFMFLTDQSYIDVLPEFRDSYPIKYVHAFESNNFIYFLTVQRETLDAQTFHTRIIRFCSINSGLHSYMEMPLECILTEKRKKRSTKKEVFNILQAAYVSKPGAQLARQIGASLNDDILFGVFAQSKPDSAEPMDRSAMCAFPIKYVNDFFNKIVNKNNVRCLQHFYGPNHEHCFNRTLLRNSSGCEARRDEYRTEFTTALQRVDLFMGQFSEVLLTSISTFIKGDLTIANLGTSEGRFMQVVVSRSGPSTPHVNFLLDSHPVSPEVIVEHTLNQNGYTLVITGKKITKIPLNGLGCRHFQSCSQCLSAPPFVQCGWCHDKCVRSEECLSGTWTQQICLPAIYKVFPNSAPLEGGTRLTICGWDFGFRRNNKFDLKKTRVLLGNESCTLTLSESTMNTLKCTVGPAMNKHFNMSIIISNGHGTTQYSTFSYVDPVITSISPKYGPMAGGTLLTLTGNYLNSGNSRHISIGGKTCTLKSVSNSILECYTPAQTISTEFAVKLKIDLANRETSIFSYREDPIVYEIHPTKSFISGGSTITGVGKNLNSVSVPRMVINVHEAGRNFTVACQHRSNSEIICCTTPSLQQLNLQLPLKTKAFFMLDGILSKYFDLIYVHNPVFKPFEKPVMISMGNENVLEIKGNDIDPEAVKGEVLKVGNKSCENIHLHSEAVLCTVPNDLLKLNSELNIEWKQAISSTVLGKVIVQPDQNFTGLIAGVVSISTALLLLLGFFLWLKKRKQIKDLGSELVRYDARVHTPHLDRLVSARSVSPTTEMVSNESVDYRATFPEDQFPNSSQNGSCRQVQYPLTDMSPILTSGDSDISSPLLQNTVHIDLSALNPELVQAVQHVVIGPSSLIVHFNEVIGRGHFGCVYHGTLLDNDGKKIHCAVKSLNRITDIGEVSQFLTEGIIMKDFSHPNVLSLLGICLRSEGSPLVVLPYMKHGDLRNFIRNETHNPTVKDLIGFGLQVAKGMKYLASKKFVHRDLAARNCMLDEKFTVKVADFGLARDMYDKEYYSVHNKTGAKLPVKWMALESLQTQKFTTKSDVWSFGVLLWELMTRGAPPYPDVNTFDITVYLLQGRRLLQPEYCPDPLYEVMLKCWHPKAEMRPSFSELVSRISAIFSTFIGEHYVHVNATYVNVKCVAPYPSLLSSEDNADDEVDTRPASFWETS
Protocol: (§1) The binding of anti-c-Met antibodies and monovalent forms thereof (also termed “UniBody molecules” herein, see Example 5) to A431 cells expressing membrane-bound c-Met (purchased at ATCC, CRL-1555) was tested using flow cytometry (FACS Canto II, BD Biosciences). […] Binding of anti-c-Met antibodies and UniBody molecules was detected using a Phycoerythrin-conjugated goat-anti-human IgG antibody (Jackson). IgG1-5D5 was used as positive control antibody, and HuMab-KLH was used as isotype control antibody. EC₅₀ values were determined by means of non-linear regression (sigmoidal dose-response with variable slope) using GraphPad Prism V4.03 software (GraphPad Software, San Diego, Calif., USA).
(§2) Also maximum binding levels were unchanged between IgG1's and UniBody molecules. For antibodies 005, 006, 008, 035, 045 and 058, on the other hand, a more than 2-fold […] as well as a decrease in maximum binding level was observed when comparing IgG1 with their UniBody counterpart. This was most likely due to the […] (Kd) of these antibodies (see Example 14).

Binder	EC50 [nM]
B1	9.32
B2	2.42
B3	12.2

molecular target: T1, human c-Met, membrane-bound on cells; assay: flow cytometry on A431 cells
Protocol: as §1, §2

Binder	fold change of EC50, UniBody molecule against IgG1 of the identical clone [fold]
B4	> 2
B1	> 2
B2	< 2
B5	< 2
B6	> 2
B3	> 2
B7	< 2
B8	< 2

molecular target: T1, human c-Met, membrane-bound on cells; assay: flow cytometry on A431 cells (PE goat anti-human IgG); second panel
Protocol: as §1, §2

Binder	EC50 [nM]
B4	1.85
B6	5.8

molecular target: T1, human c-Met, membrane-bound on cells; assay: flow cytometry on A431 cells (PE goat anti-human IgG); bottom panel
Protocol: as §1, §2

Binder	EC50 [nM]
B5	1.16
B7	0.6
B8	0.847

molecular target: T2, rhHGF R/Fc Chimera (R&D Systems; Cat.358MT/CF) (human, UniProt P08581 25-932); assay: ELISA on coated rhHGF R/Fc Chimera
T2 construct: Bought reagent; Fc part of the bought chimera not given; not described
T2 sequence (P08581 25-932, change not shown): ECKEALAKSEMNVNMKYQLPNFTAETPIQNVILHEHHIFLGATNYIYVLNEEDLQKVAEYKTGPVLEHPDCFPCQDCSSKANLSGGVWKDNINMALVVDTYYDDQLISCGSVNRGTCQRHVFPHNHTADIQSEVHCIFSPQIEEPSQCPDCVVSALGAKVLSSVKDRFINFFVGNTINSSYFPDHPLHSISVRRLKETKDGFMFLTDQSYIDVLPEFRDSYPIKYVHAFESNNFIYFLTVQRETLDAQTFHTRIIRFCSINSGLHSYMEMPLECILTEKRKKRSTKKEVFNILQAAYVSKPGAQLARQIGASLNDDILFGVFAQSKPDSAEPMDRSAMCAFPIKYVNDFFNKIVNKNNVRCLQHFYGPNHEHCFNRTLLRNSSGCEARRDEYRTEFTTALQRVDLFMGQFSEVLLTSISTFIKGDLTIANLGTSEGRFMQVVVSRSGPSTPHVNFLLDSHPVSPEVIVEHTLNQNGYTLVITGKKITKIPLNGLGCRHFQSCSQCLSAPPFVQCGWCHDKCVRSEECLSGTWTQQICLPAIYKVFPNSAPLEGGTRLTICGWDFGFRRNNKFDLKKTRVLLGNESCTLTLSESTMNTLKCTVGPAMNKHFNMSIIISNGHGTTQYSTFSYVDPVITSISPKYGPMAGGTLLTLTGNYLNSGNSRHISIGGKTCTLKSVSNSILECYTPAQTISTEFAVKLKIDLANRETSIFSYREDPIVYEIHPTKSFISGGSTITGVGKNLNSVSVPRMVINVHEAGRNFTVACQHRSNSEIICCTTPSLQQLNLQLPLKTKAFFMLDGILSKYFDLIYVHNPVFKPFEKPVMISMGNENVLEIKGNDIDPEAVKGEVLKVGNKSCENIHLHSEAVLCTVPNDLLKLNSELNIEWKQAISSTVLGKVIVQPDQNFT
Protocol: c-Met binding properties of the mutants were tested in an ELISA. ELISA plate wells were coated overnight at 4° C. with rhHGF R/Fc Chimera (R&D Systems; Cat.358MT/CF) in PBS (1 μg/mL). Next, the wells were washed with PBST (PBS supplemented with 0.05% Tween-20 [Sigma-Aldrich, Zwijndrecht, The Netherlands]) and blocked for one hour at room temperature (RT) with PBSTC (PBST supplemented 2% [v/v] chicken serum [Gibco, Paisley, Scotland]). Subsequently, the wells were washed with PBST and incubated for one hour at RT with the anti-cMet antibodies and variants serially diluted in PBSTC (10 μg/mL in 4-fold dilutions). […] After washing, the reaction was visualized by a 15 min incubation with 2,2′-azino-bis(3-ethylbenzothiazoline-6-sulfonic acid) (ABTS: dilute one ABTS tablet in 50 mL ABTS buffer [Roche Diagnostics, Almere, The Netherlands]) at RT protected from light. The colorization was stopped by adding an equal volume of oxalic acid (Sigma-Aldrich, Zwijndrecht, The Netherlands). […] at 405 nm was measured on a microtiter plate reader (Biotek Instruments, Winooski, USA).

Binder	EC50 [µg/mL]
B7	0.0301
B9	0.0154
B10	0.0189
B11	0.0156
B12	0.023
B13	0.0142
B14	0.0188
B15	0.0296
